We go through two substances from patent US10273291.

In this experiment the target is ΔRSC3. Nature of the experiment: ELISA, antigen coated, IgG1. On the technique in general: In an ELISA, binding on a coated surface is turned into a signal by an enzyme label.

Take VRC-PG04 (antibody): the fold less binding than to RSC3 amounted to 100 fold.
Substance VRC-PG04b (antibody) yielded a fold less binding than to RSC3 of 100 fold.
